{"source": "paper doi:10.1101/2022.02.28.482149", "about": "(bioRxiv, 2022)", "molecular_target": "the molecule itself", "assay": "crystal structure", "data": [{"protein": "MaFRSA (Methanomethylophilus alvus pyrrolysyl-tRNA synthetase, MaPylRS N166A:V168A) (enzyme) MTVKYTDAQIQRLREYGNGTYEQKVFEDLASRDAAFSKEMSVASTDNEKKIKGMIANPSRHGLTQLMNDIADALVAEGFIEVRTPIFISKDALARMTITEDKPLFKQVFWIDEKRALRPMLAPNLYSVMRDLRDHTDGPVKIFEMGSCFRKESHSGMHLEEFTMLALADMGPRGDATEVLKNYISVVMKAAGLPDYDLVQEESDVYKETIDVEINGQEVCSAAVGPHYLDAAHDVHEPWSGAGFGLERLLTIREKYSTVKKGGASISYLNGAKIN", "values": [{"measurement": "binding result", "value": "binds"}]}]}
